Reference: US20250277199, “NOVEL CRISPR-CAS NUCLEASES FROM METAGENOMES” (Brain Biotech AG, published 2025)

Biological target: T1, BMC11 (uncultured bacterium (metagenome))
T1 chain: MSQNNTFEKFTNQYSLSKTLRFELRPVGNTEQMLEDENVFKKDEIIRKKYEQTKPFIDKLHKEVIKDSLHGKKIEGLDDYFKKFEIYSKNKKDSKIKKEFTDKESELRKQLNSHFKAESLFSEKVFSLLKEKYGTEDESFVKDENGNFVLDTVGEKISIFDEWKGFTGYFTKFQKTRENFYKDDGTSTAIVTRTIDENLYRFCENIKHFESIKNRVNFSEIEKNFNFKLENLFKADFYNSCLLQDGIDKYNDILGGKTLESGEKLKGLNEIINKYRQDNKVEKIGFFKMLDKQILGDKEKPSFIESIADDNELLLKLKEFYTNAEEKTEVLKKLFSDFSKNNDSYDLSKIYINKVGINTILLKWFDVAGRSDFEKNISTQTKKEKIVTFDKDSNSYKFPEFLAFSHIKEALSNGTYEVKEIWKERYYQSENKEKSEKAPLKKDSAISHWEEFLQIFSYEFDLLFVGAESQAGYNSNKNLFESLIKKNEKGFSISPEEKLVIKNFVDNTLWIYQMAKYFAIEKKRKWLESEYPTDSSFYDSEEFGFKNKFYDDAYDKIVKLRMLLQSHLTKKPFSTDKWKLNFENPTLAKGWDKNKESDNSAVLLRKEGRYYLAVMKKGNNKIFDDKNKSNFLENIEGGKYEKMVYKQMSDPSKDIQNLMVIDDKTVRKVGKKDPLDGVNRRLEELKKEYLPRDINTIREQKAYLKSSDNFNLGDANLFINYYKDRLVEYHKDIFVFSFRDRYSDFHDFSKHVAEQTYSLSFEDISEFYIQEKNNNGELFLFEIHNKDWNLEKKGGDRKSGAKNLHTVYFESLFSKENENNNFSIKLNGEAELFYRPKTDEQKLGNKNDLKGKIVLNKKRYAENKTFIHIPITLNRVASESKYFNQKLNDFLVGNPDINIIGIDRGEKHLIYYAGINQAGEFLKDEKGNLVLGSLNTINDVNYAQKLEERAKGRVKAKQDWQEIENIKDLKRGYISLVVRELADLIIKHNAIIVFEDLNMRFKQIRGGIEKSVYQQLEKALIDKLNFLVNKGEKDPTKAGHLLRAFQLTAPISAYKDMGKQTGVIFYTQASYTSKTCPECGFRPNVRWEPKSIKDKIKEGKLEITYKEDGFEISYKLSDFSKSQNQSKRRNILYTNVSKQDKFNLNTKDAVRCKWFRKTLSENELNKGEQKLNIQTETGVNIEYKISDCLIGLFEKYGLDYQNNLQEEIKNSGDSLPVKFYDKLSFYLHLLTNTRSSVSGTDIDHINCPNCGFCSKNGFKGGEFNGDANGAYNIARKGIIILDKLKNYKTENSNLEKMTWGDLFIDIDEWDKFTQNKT
Assay: cell_activity; PAM not stated; E. coli depletion, 30 C
In short: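 E. coli carrying arabinose-induced (0.2%) BMC nuclease, grown at 30° C., made electrocompetent and electroporated with 50-100 ng plasmid carrying gRNA against malQ. Transformants plated on selective M9-glucose agar with kanamycin/ampicillin (± nourseothricin), and growth scored after 48 h at 30° C.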

B1: malQ gRNA (BMC stem-loop + 24 nt spacer) ; malQ protospacer (ssRNA ; dsDNA)
RNA: GAUUUCUACUAUUGUAGAUGUGGCGGUACGUUGAUGCAUCGCG
DNA 1: GTGGCGGTACGTTGATGCATCGCG
DNA 2: CGCGATGCATCAACGTACCGCCAC
Q: Which activity does the source give for B1 here?
A: The activity was > 99.9 % colony reduction.
